Data set [1] deals with the molecule itself. Put plainly: cross-linking; 20 µM ClpP1 or ClpP2 in 20 mM HEPES, 100 mM NaCl, 1 mM EDTA, pH 7.5, 25°C; glutaraldehyde (0.1% in methods, 1% in legend) 10 min, quenched with 200 mM Tris-HCl pH 7.5; SDS-PAGE.
In data set [2] the target is T1, Myxococcus xanthus DK1622 trigger factor Tig (MXAN_2013), His- or MBP-tagged, for pulldown (Myxococcus xanthus DK1622, UniProt Q1DAT1 1-425).
T1 construct: ribosome-associated molecular chaperone trigger factor, Myxococcus xanthus DK1622, locus MXAN_2013; source: E. coli BL21, purified (Ni Sepharose for His tag, maltose elution for MBP)
T1 sequence (looked up): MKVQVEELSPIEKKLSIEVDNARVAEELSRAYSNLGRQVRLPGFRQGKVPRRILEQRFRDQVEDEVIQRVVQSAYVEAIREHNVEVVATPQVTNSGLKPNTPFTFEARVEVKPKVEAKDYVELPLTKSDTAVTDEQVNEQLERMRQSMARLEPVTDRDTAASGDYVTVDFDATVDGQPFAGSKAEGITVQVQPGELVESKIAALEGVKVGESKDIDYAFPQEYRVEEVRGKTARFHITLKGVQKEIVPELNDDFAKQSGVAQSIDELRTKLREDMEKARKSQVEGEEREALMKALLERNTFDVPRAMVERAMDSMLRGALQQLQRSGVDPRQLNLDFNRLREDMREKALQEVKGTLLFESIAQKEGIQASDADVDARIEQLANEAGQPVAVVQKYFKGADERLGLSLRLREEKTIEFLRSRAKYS
Put plainly: pull-down; purified His-tagged and MBP-tagged proteins mixed, room temperature 30 min, passed through Ni-NTA resin (His-tagged protein held), washed with suspension buffer, eluted with 250 mM imidazole; MBP mixed with His-labeled protein as negative control. To be noted: both partners purified.

The results in this text go back to publication PMC11423568, “Functional investigation of the two ClpPs and three ClpXs in Myxococcus xanthus DK1622” (mSphere, 2024).

B1: Myxococcus xanthus DK1622 ClpP1 (MXAN_2014), no tag (enzyme)
chain: not shown
notes: ClpP1, peptidase subunit of ClpXP, Myxococcus xanthus DK1622, locus MXAN_2014; also called nonlabeled ClpP1; nontagged ClpP1; source: E. coli BL21, purified; copies: 14
What is called stoichiometry N is a count of units in the complex or per binding partner. B1: the “stoichiometry N” value in data set [1] turned out to be 14.

B2: Myxococcus xanthus DK1622 ClpP1 (MXAN_2014), His- or MBP-tagged, for pulldown (enzyme)
chain: not shown
notes: ClpP1, peptidase subunit of ClpXP, Myxococcus xanthus DK1622, locus MXAN_2014; source: E. coli BL21, purified (Ni Sepharose for His tag, maltose elution for MBP)
In the case of B2, in data set [2], the binding result is “binds”.
